Test results reported in patent US20220119517A1 (NANJING SANHOME PHARMACEUTICAL, published 2022).

Tests used:
[1] = target: T1, human Claudin18.2 (CLDN18.2), full length, on cells (human); assay: FACS on NUGC4 cells
T1 construct: also called CLDN18.2-FL; HEK293-CLDN18.2 cells
Text: (§1) Human gastric cancer cells NUGC4 and stably transfected cells CHO-K1-CLDN18.1 (prepared in Example 5) were used respectively, to verify the specificity and affinity of the anti-CLDN18.2 antibodies above at the cellular level by FAGS technology. After antibody affinity maturation and screening in vitro, each antibody can bind to the CLDN18.2 target on NUGC4 cells, but not to CHO-K1-CLDN18.1 cells, as compared with the original 3CHI antibody.

[2] = target: T1, human Claudin18.2 (CLDN18.2), full …; assay: cell-based or functional assay
[3] = target: T2, human Claudin18.1 (CLDN18.1), full length, on cells (human, UniProt P56856 1-261); assay: FACS on CHO-K1-CLDN18.1 cells
T2 construct: HEK293-CLDN18.1 cells carry a fusion with green fluorescent protein (ZsGreen); CHO-K1-CLDN18.1 cells carry pcDNA3.1-CLDN18.1; The cell line is named under assay; also called CLDN18.1-FL; HEK293-CLDN18.1 cells
Text: as §1

[4] = target: T1, human Claudin18.2 (CLDN18.2), full …; assay: cellular ELISA on fixed HEK293-CLDN18.2 cells
Experimental: (§2) HEK293-CLDN18.1 and HEK293-CLDN18.2 cells were resuscitated two weeks in advance, cultured with DMEM complete culture medium containing 10% fetal bovine serum at 37° C., 5% CO₂. When the cells grew to 80%-90% confluency, they were digested with 0.5 mM EDTA-PBS (Sigma) at room temperature, centrifuged at 1000 rpm for 5 minutes, the supernatant was discarded. Cells were resuspended in DMEM complete culture medium, the cell concentration was adjusted to 6×10⁵ cells/ml. Cells were plated on 96-well cell plates (Corning) pre-coated with polylysine at 2.5 μg/well, 100 μl per well, incubated at 37° C., 5% CO₂ for 24 hours, making cells evenly and completely plated on the bottom of the well. The supernatant was aspirated, and the cells were fixed with 4% paraformaldehyde at room temperature for 20 minutes, washed 3 times with 200 μl PBS, 2 minutes at each time. The well plates were blocked with 200 μl of 3% BSA-PBS at 37° C. for 1 hour. Each chimeric antibody was diluted with 3% BSA-PBS to a concentration of 6 μg/ml, and diluted in a 6-fold gradient to a total of 7 concentrations. At the same time, IMAB362-similar-hG1 diluted in the same concentration gradient as the positive control, and human IgG1, kappa isotype control antibody (hereinafter referred to as Isotype, provided by CrownBio (Taicang) Co., Ltd.) as the negative control were added to HEK293-CLDN18.2 and HEK293-CLDN18.1 cell plates, respectively. The cells were incubated at 37° C. for 1 hour, washed 5 times with PBS. Incubation with HRP-anti human IgG (Jackson) diluted 1:10000 in blocking solution was performed at 37° C. for 1 hour followed by washing 5 times with PBS. 100 μl of TMB one-component color developing solution was added, protected from light at room temperature for 5-10 minutes, terminated with 50 μl of 2M sulfuric acid, OD450 was read on the microplate reader. Data processing: the original data was put into GraphPad 5.0 software for plotting and calculation.

[5] = target: T2, human Claudin18.1 (CLDN18.1), full …; assay: cellular ELISA on fixed HEK293-CLDN18.1 cells, HRP-anti human IgG, OD450
Experimental: as §2

Binder | MFI (CLDN18.2) [1] | in-vitro ADCC activity, Jurkat-CD16A/NF luciferase reporter, EC50 [2] | in-vitro ADCC activity, Jurkat-CD16A/NF luciferase reporter, Top [2] | MFI (CLDN18.1) [3] | EC50 [4] | binding result [5]
3CHI (antibody, V domains shown, Human-murine chimeric antibody with the constant region of human IgG1; also called chimeric antibody of S5H3B6; original 3CHI antibody) VH: EVKLVESGGGLVQPGGSLKLSCAASGFTFSDYGMAWVRQAPRKGPEWVAFISNLAYSIYYADTVTGRFTISRENAKNTLYLEMSSLRSEDTAMYYCARLGYGNSFAYWGQGTLVTVSA VL: DIVMTQSPSSLTVTAGEKVTMSCKSSQSLLNSGNQKNYLTWYQQKPGQPPKLLIYWASTRESGVPDRFTGSGSGTDFTLTISSVQAEDLAVYYCQNDYSYPLTFGAGTKLELK | 2510 MFI | 0.54 nM | 212000 | 76 MFI | 0.08 nM | no binding (tested: 6000 ng/ml)
18CHI (antibody, V domains shown, Human-murine chimeric antibody with the constant region of human IgG1; also called chimeric antibody of C40B10D9) VH: QVQLKESGPGLVAPSQSLSITCTVSGFSLTSYGVSWVRQPPGKGLEWLGVIWGDGSTNYHSALISRLSISKDNSKSQVFLKLNSLQTDDTATYYCAGGLRLWFAYWGQGTLVTVSA VL: not shown |  |  |  |  | 1.75 nM | no binding (tested: 6000 ng/ml)
1CHI (antibody, V domains shown, Human-murine chimeric antibody with the constant region of human IgG1; also called chimeric antibody of B4B10G3) VH: QIQLVQSGPELKKPGETVKISCKASGYTFTNYGMNWVKQAPGKGLKWMGWINTYTGEPTYADDFKGRFAFSLETSASTAYLQINNLKNEDMATYFCARDGQLGLRFAYWGQGTLVTVSA VL: NIMMTQSPSSLAVSAGEKVTMSCKSSQSVLYSSNQKNYLAWYQQKPGQSPKLLIYWASTRESGVPDRFTGSGSGTDFTLTISSVQAEDLAVYYCHQYLSSRTFGGGTKLEIK |  |  |  |  | 0.55 nM | no binding (tested: 6000 ng/ml)
